Reference: US6358897B1, “Alkyl trypsin compositions and methods of use in contact lens cleaning and disinfecting systems” (Alcon Laboratories, Inc., priority 1996, dated 2002)

Test system: azocasein
Experiment: Stability of Et-trypsin and trypsin in a disinfecting composition (Example 2B), azocasein method
Type: physicochemical
Conditions: 37° C., Example 2B composition, 50 μg/ml
Procedure: Azocasein Method The following solutions are used in this assay: 1) Buffer solution: 0.05 M sodium phosphate buffer containing 0.9% sodium chloride, pH 7.6. 2) Substrate solution: 2 mg/ml azocasein in the buffer solution mentioned above. The assay is initiated by mixing 1 ml of an appropriately diluted (such that the enzyme activity is in the range of standard curve) enzyme composition in phosphate buffer with 2 ml of azocasein substrate solution (2 mg/ml). After incubation at 37° C. for 20 minutes, the mixture is removed from the incubator and 1 ml of trichloroacetic acid to (14% w/v) is added to stop the enzyme reaction. The mixture is vortexed well and allowed to stand at room temperature for 20 minutes. After centrifuging at 2500 rpm (with a Beckman GS-6R Centrifuge) for 15 minutes, the supernatant is filtered with a serum sampler. 2 ml of the clear yellow filtrate is then adjusted to a neutral pH with 2 ml of 0.5 N sodium hydroxide and the absorbance of 440 nm wavelength light is measured with a spectrophotometer. The amount of azocasein hydrolyzed is calculated based on a standard curve of known concentrations of azocasein solution developed under identical conditions. An enzyme activity unit (“AZ U”) is defined as that amount of enzyme which hydrolyzes 1 μg of azocasein substrate/minute at 37° C. The following is an example of the stability of Et-trypsin or Me-trypsin in a disinfecting composition of the present invention as compared to an analogous composition containing trypsin. The enzymes were solubilized in the Example 2B composition. The compositions were stored at 37° or 50° C. for 8 days or 30 hours, respectively. At various time points, enzyme activity was assayed using the azocasein method.

Substance: ethyl trypsin [Et-Trypsin]
- % Activity Remaining (1 Hour): 100%
- % Activity Remaining (2 Hours): 100%
- % Activity Remaining (4 Hours): 95.2%
- % Activity Remaining (6 Hours): 99.3%
- % Activity Remaining (8 Hours): 97.9%
- % Activity Remaining (1 day): 89.7%
- % Activity Remaining (2 days): 82.5%
- % Activity Remaining (4 days): 76.4%
- % Activity Remaining (8 days): 65.6%
